{"source": "paper PMC5065780", "molecular_target": "VP35 IID (interferon inhibitory domain) (Ebola virus, UniProt X5GXU1 215-340)", "test": "EMSA"}
{"binder": "10 bp dsRNA probe (dsRNA) RNA 1: CACUGCGACC RNA 2: GGUCGCAGUG", "values": [{"measurement": "binding result", "value": "binds"}]}
